According to the supplement of paper PMC9112550, “Optimization of the antimicrobial peptide Bac7 by deep mutational scanning” (BMC Biology, 2022):

Test system: Escherichia coli TOP10
Assay: shrunken log2 fold change of peptide-encoding DNA abundance (4.5 h post-induction vs induction); higher = less antimicrobial activity (less host growth inhibition)
Conditions: time post-induction: 4.5 h; library: site-saturation at positions 5, 18, 19, 20
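Note: peptides expressed intracellularly from a pBAD plasmid library in pooled LB shake-flask culture, induced with 0.3% L-arabinose, DNA abundance read by NGS, three biological replicates, DESeq2 with apeglm shrinkage.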

RRIRQRPPRLPRPRPRPASMPRP and RRIRQRPPRLPRPRPRPASSPRP are within 0.2 log units of each other in “shrunken log2 fold change” value: -0.39 for the first, -0.196 for the second.

Compared with RRIRQRPPRLPRPRPRPATNPRP, RRIRQRPPRLPRPRPRPATTPRP is higher in “shrunken log2 fold change” value: -0.0811 for the first, 0.351 for the second.

RRIRQRPPRLPRPRPRPAVRPRP and RRIRQRPPRLPRPRPRPCARPRP are within 0.2 log units of each other in “shrunken log2 fold change” value: -0.0154 for the first, -0.0014 for the second.

RRIRQRPPRLPRPRPRPCASPRP and RRIRQRPPRLPRPRPRPCATPRP are within 0.2 log units of each other in “shrunken log2 fold change” value: -0.0156 for the first, -0.0476 for the second.

First: RRIRQRPPRLPRPRPRPCCMPRP
Second: RRIRQRPPRLPRPRPRPCCYPRP
The “shrunken log2 fold change” value of the first is lower: -0.42 for the first, -0.0451 for the second.

RRIRQRPPRLPRPRPRPCEEPRP and RRIRQRPPRLPRPRPRPCFEPRP are within 0.2 log units of each other in “shrunken log2 fold change” value: -0.0216 for the first, 0.0423 for the second.

RRIRQRPPRLPRPRPRPCFVPRP and RRIRQRPPRLPRPRPRPCGPPRP are within 0.2 log units of each other in “shrunken log2 fold change” value: -0.0859 for the first, -0.141 for the second.

Compared with RRIRQRPPRLPRPRPRPCGWPRP, RRIRQRPPRLPRPRPRPCHWPRP is lower in “shrunken log2 fold change” value: 0.502 for the first, 0.018 for the second.

Compared with RRIRQRPPRLPRPRPRPCIPPRP, RRIRQRPPRLPRPRPRPCKAPRP is lower in “shrunken log2 fold change” value: 0.00582 for the first, -0.218 for the second.

Compared with RRIRQRPPRLPRPRPRPCKWPRP, RRIRQRPPRLPRPRPRPCLRPRP is lower in “shrunken log2 fold change” value: -0.0434 for the first, -0.379 for the second.

First: RRIRQRPPRLPRPRPRPCLVPRP
Second: RRIRQRPPRLPRPRPRPCNHPRP
The “shrunken log2 fold change” value of the first is lower: -0.252 for the first, 0.037 for the second.

RRIRQRPPRLPRPRPRPCNPPRP and RRIRQRPPRLPRPRPRPCPSPRP are within 0.2 log units of each other in “shrunken log2 fold change” value: -0.0715 for the first, 0.0332 for the second.

RRIRQRPPRLPRPRPRPCQSPRP and RRIRQRPPRLPRPRPRPCREPRP are within 0.2 log units of each other in “shrunken log2 fold change” value: -0.0019 for the first, -0.0541 for the second.

RRIRQRPPRLPRPRPRPCRVPRP and RRIRQRPPRLPRPRPRPCSDPRP are within 0.2 log units of each other in “shrunken log2 fold change” value: -0.306 for the first, -0.136 for the second.

RRIRQRPPRLPRPRPRPCSPPRP and RRIRQRPPRLPRPRPRPCVKPRP are within 0.2 log units of each other in “shrunken log2 fold change” value: 0.0218 for the first, -0.0496 for the second.

Going from RRIRQRPPRLPRPRPRPCYSPRP to RRIRQRPPRLPRPRPRPDAAPRP, the “shrunken log2 fold change” value rises from -0.0444 to 1.08.

RRIRQRPPRLPRPRPRPDCCPRP and RRIRQRPPRLPRPRPRPDCIPRP are within 0.2 log units of each other in “shrunken log2 fold change” value: -0.0188 for the first, -0.0167 for the second.

RRIRQRPPRLPRPRPRPDCKPRP and RRIRQRPPRLPRPRPRPDDEPRP are within 0.2 log units of each other in “shrunken log2 fold change” value: -0.0311 for the first, -0.0396 for the second.

RRIRQRPPRLPRPRPRPDDWPRP and RRIRQRPPRLPRPRPRPDFPPRP are within 0.2 log units of each other in “shrunken log2 fold change” value: 0.0952 for the first, 0.065 for the second.

Going from RRIRQRPPRLPRPRPRPDFRPRP to RRIRQRPPRLPRPRPRPDGNPRP, the “shrunken log2 fold change” value falls from 0.0259 to -0.26.

Going from RRIRQRPPRLPRPRPRPDINPRP to RRIRQRPPRLPRPRPRPDIVPRP, the “shrunken log2 fold change” value rises from -0.412 to -0.0164.

RRIRQRPPRLPRPRPRPDKMPRP and RRIRQRPPRLPRPRPRPDLRPRP are within 0.2 log units of each other in “shrunken log2 fold change” value: 0.021 for the first, -0.0102 for the second.

RRIRQRPPRLPRPRPRPDMDPRP and RRIRQRPPRLPRPRPRPDMRPRP are within 0.2 log units of each other in “shrunken log2 fold change” value: -0.0896 for the first, 0.0308 for the second.

RRIRQRPPRLPRPRPRPDNPPRP and RRIRQRPPRLPRPRPRPDRPPRP are within 0.2 log units of each other in “shrunken log2 fold change” value: -0.0388 for the first, 0.00639 for the second.

RRIRQRPPRLPRPRPRPDSAPRP and RRIRQRPPRLPRPRPRPDSSPRP are within 0.2 log units of each other in “shrunken log2 fold change” value: -0.029 for the first, 0.00797 for the second.

First: RRIRQRPPRLPRPRPRPDSVPRP
Second: RRIRQRPPRLPRPRPRPDTHPRP
The “shrunken log2 fold change” value of the first is higher: -0.0518 for the first, -0.347 for the second.

Compared with RRIRQRPPRLPRPRPRPDTKPRP, RRIRQRPPRLPRPRPRPDVHPRP is lower in “shrunken log2 fold change” value: -0.00171 for the first, -0.304 for the second.

Going from RRIRQRPPRLPRPRPRPDVWPRP to RRIRQRPPRLPRPRPRPDYMPRP, the “shrunken log2 fold change” value falls from -0.0325 to -0.453.

RRIRQRPPRLPRPRPRPEAQPRP and RRIRQRPPRLPRPRPRPEEAPRP are within 0.2 log units of each other in “shrunken log2 fold change” value: 0.285 for the first, 0.188 for the second.

Compared with RRIRQRPPRLPRPRPRPEFFPRP, RRIRQRPPRLPRPRPRPEGAPRP is higher in “shrunken log2 fold change” value: 0.0969 for the first, 0.852 for the second.

Compared with RRIRQRPPRLPRPRPRPEGCPRP, RRIRQRPPRLPRPRPRPEGVPRP is higher in “shrunken log2 fold change” value: -0.0749 for the first, 0.381 for the second.

RRIRQRPPRLPRPRPRPEHIPRP and RRIRQRPPRLPRPRPRPEKAPRP are within 0.2 log units of each other in “shrunken log2 fold change” value: -0.0129 for the first, -0.00536 for the second.

RRIRQRPPRLPRPRPRPELCPRP and RRIRQRPPRLPRPRPRPELDPRP are within 0.2 log units of each other in “shrunken log2 fold change” value: 0.177 for the first, 0.0346 for the second.

RRIRQRPPRLPRPRPRPELGPRP and RRIRQRPPRLPRPRPRPELTPRP are within 0.2 log units of each other in “shrunken log2 fold change” value: 0.0387 for the first, 0.232 for the second.

RRIRQRPPRLPRPRPRPENAPRP and RRIRQRPPRLPRPRPRPENEPRP are within 0.2 log units of each other in “shrunken log2 fold change” value: 0.242 for the first, 0.0608 for the second.

RRIRQRPPRLPRPRPRPEQGPRP and RRIRQRPPRLPRPRPRPERKPRP are within 0.2 log units of each other in “shrunken log2 fold change” value: 0.0169 for the first, 0.0453 for the second.

RRIRQRPPRLPRPRPRPESFPRP and RRIRQRPPRLPRPRPRPESQPRP are within 0.2 log units of each other in “shrunken log2 fold change” value: 0.0552 for the first, -0.0174 for the second.

RRIRQRPPRLPRPRPRPETHPRP was tested, and the “shrunken log2 fold change” value was 0.0176.
